Source: patent publication US20240327815A1
pIC50: −log10 of the molar value.

Assays:
[1] = molecular target: Delta SARS-CoV-2 spike protein, plate-coated (MSD) (SARS-CoV-2) (UniProt P0DTC2); assay: MSD competition vs labelled ACE2
[2] = molecular target: B.1.1.7 (Alpha) SARS-CoV-2 spike protein, plate-coated (MSD) (SARS-CoV-2) (UniProt P0DTC2); assay: MSD competition vs labelled ACE2
[3] = molecular target: Omicron SARS-CoV-2 spike protein, plate-coated (MSD) (SARS-CoV-2) (UniProt P0DTC2); assay: MSD competition vs labelled ACE2
[4] = molecular target: B.1.351 (Beta) SARS-CoV-2 spike protein, plate-coated (MSD) (SARS-CoV-2) (UniProt P0DTC2); assay: MSD competition vs labelled ACE2
[5] = molecular target: P.1 (Gamma) SARS-CoV-2 spike protein, plate-coated (MSD) (SARS-CoV-2) (UniProt P0DTC2); assay: MSD competition vs labelled ACE2
[6] = molecular target: spike of live SARS-CoV-2 Beta variant (SARS-CoV-2) (UniProt P0DTC2); assay: cell-based or functional assay
[7] = molecular target: Beta SARS-CoV-2 spike on pseudotyped lentivirus (SARS-CoV-2) (UniProt P0DTC2); assay: cell-based or functional assay
[8] = molecular target: Alpha SARS-CoV-2 spike on pseudotyped lentivirus (SARS-CoV-2) (UniProt P0DTC2); assay: cell-based or functional assay
[9] = molecular target: Delta SARS-CoV-2 spike on pseudotyped lentivirus (SARS-CoV-2) (UniProt P0DTC2); assay: cell-based or functional assay
[10] = molecular target: spike of live SARS-CoV-2 Delta variant (SARS-CoV-2) (UniProt P0DTC2); assay: cell-based or functional assay

REGEN-COV
pIC50 [1]: 10.30
pIC50 [2]: 10.22
pIC50 [3]: 7.88
pIC50 [4]: 9.46
pIC50 [5]: 9.40
Live virus neutralization (MN50, nM) [6]: 0.08 nM
Pseudovirus Neutralization (IC50, nM) [7]: 4.9 nM
Pseudovirus Neutralization (IC50, nM) [8]: 0.06 nM
Pseudovirus Neutralization (IC50, nM) [9]: 0.05 nM
Pseudovirus neutralization IC50 [9]: 0.05 nM
Live virus neutralization (MN50, nM) [10]: 0.05 nM
Live virus neutralization MN50 [10]: 0.05 nM
